Assay results reported in patent US20120034160A1 (AbbVie / Abbott, published 2012).
One block for each binder: values may come before it.

Legend:
Recombinant Human IL-1β [1] = molecular target: Recombinant Human IL-1β (human, UniProt P01584 117-269); assay: cell-based or functional assay
Recombinant Human IL-17 [2] = molecular target: T1, Recombinant Human IL-17 (human, UniProt Q16552 20-155, limits assumed); assay: cell-based or functional assay
T1 sequence (looked up): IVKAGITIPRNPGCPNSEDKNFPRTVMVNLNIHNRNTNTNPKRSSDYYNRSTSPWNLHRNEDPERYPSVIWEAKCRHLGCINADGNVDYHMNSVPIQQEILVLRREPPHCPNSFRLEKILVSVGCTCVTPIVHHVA

Recombinant Human IL-17 [3] = molecular target: T2, Recombinant Human IL-17 (human, UniProt Q16552 20-155, limits assumed); assay: Biacore SPR; C-terminal VD
T2 construct: bought reagent
T2 sequence (looked up): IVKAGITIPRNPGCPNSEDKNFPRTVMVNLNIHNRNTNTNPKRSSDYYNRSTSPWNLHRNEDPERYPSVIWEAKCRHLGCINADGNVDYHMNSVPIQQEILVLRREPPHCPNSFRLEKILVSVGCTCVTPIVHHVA
Summary of the method: (§1)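 Antibodies or DVD-Ig were captured at 25 μg/ml on an amine-coupled goat anti-mouse IgG (Fcγ) CM5 surface, with a blank dextran reference. Antigen was injected at 10−200 nM in HBS-EP pH 7.4 at 25° C. A global 1:1 Langmuir fit gave kon and koff, and KD = koff/kon.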

Recombinant Human IL-1β [4] = molecular target: T3, Recombinant Human IL-1β (human, UniProt P01584 117-269); assay: Biacore SPR; N-terminal VD
T3 construct: bought reagent; also called IL-1B
Summary of the method: as §1

B7: DVD1262 (bispecific antibody, human IgG1, kappa)
heavy: not shown
light: DIQMTQSPSSLSASVGDRVTITCRASGNIHNYLTWYQQTPGKAPKLLIYNAKTLADGVPSRFSGSGSGTDYTFTISSLQPEDIATYYCQHFWSIPYTFGQGTKLQITRTVAAPDIQMTQSPSSLSASVGDRVTITCRASSGIISYIDWFQQKPGKAPKRLIYATFDLASGVPSRFSGSGSGTDYTLTISSLQPEDFATYYCRQVGSYPETFGQGTKLEIKRTVAAPSVFIFPPSDEQLKSGTASVVCLLNNFYPREAKVQWKVDNALQSGNSQESVTEQDSKDSTYSLSSTLTLSKADYEKHKVYACEVTHQGLSSPVTKSFNRGEC
notes: V1 wt hIgG1, V2 kappa; also called DVD1262H; DVD1262L
Kd (Recombinant Human IL-17 [3]): 12 nM | koff (Recombinant Human IL-17 [3]): 0.0001 s⁻¹ | kon (Recombinant Human IL-17 [3]): 8500 M⁻¹ s⁻¹ | Kd (Recombinant Human IL-1β [4]): 0.033 nM | koff (Recombinant Human IL-1β [4]): 4.8e-05 s⁻¹ | kon (Recombinant Human IL-1β [4]): 1.4e+06 M⁻¹ s⁻¹

B8: DVD1264 (bispecific antibody, human IgG1, kappa)
heavy: not shown
light: DIQMTQSPSSLSASVGDRVTITCRASGNIHNYLTWYQQTPGKAPKLLIYNAKTLADGVPSRFSGSGSGTDYTFTISSLQPEDIATYYCQHFWSIPYTFGQGTKLQITRTVAAPDIQMTQSPSSLSASVGDRVTITCRASSGIISYIDWFQQKPGKAPKRLIYATFDLASGVPSRFSGSGSGTDYTLTISSLQPEDFATYYCRQVGSYPETFGQGTKLEIKRTVAAPSVFIFPPSDEQLKSGTASVVCLLNNFYPREAKVQWKVDNALQSGNSQESVTEQDSKDSTYSLSSTLTLSKADYEKHKVYACEVTHQGLSSPVTKSFNRGEC
notes: V1 wt hIgG1, V2 kappa; also called DVD1264H; DVD1264L
Kd (Recombinant Human IL-17 [3]): 0.3 nM | koff (Recombinant Human IL-17 [3]): 1.1e-05 s⁻¹ | kon (Recombinant Human IL-17 [3]): 37000 M⁻¹ s⁻¹ | Kd (Recombinant Human IL-1β [4]): 0.024 nM | koff (Recombinant Human IL-1β [4]): 2.2e-05 s⁻¹ | kon (Recombinant Human IL-1β [4]): 940000 M⁻¹ s⁻¹

B9: DVD1268 (bispecific antibody, human IgG1, kappa)
heavy: not shown
light: DTVVTQSPAFLSVTPGEKVTITCITSTDIDVDMNWYQQKPDQPPKLLISQGNTLRPGVPSRFSSSGSGTDFTFTISSLEAEDAATYYCLQSDNLPLTFGQGTKLEIKRTVAAPDIQMTQSPSSLSASVGDRVTITCRASSGIISYIDWFQQKPGKAPKRLIYATFDLASGVPSRFSGSGSGTDYTLTISSLQPEDFATYYCRQVGSYPETFGQGTKLEIKRTVAAPSVFIFPPSDEQLKSGTASVVCLLNNFYPREAKVQWKVDNALQSGNSQESVTEQDSKDSTYSLSSTLTLSKADYEKHKVYACEVTHQGLSSPVTKSFNRGEC
notes: DVD-Ig, outer AB271, inner AB273, linker set 1; V1 wt hIgG1, V2 kappa; also called DVD1268H; DVD1268L
Kd (Recombinant Human IL-17 [3]): < 0.02 nM | koff (Recombinant Human IL-17 [3]): < 1e-06 s⁻¹ | kon (Recombinant Human IL-17 [3]): 51000 M⁻¹ s⁻¹ | Kd (Recombinant Human IL-1β [4]): 0.067 nM | koff (Recombinant Human IL-1β [4]): 0.00057 s⁻¹ | kon (Recombinant Human IL-1β [4]): 8.5e+06 M⁻¹ s⁻¹

B10: DVD1591 (bispecific antibody, human IgG1, kappa)
heavy: not shown
light: DIQMTQSPSSLSASVGDRVTITCRASGNIHNYLTWYQQTPGKAPKLLIYNAKTLADGVPSRFSGSGSGTDYTFTISSLQPEDIATYYCQHFWSIPYTFGQGTKLQITRTVAAPSVFIFPPDIQMTQSPSSLSASVGDRVTITCRASSGIISYIDWFQQKPGKAPKRLIYATFDLASGVPSRFSGSGSGTDYTLTISSLQPEDFATYYCRQVGSYPETFGQGTKLEIKRTVAAPSVFIFPPSDEQLKSGTASVVCLLNNFYPREAKVQWKVDNALQSGNSQESVTEQDSKDSTYSLSSTLTLSKADYEKHKVYACEVTHQGLSSPVTKSFNRGEC
notes: V1 wt hIgG1, V2 kappa; also called DVD1591H; DVD1591L
Kd (Recombinant Human IL-17 [3]): < 0.0032 nM | koff (Recombinant Human IL-17 [3]): < 1e-06 s⁻¹ | kon (Recombinant Human IL-17 [3]): 310000 M⁻¹ s⁻¹ | Kd (Recombinant Human IL-1β [4]): 0.032 nM | koff (Recombinant Human IL-1β [4]): 3.1e-05 s⁻¹ | kon (Recombinant Human IL-1β [4]): 960000 M⁻¹ s⁻¹

More lines, now with the values ahead:

C-Terminal VD IL-1β Neutralization Assay EC50 (Recombinant Human IL-1β [1]): 5.85 nM | N-terminal VD IL-17 Neutralization Assay EC50 (Recombinant Human IL-17 [2]): 0.0163 nM
B1: DVD1628 (bispecific antibody, human IgG1, kappa)
heavy: not shown
light: DIQMTQSPSSLSASVGDRVTITCRASSGIISYIDWFQQKPGKAPKRLIYATFDLASGVPSRFSGSGSGTDYTLTISSLQPEDFATYYCRQVGSYPETFGQGTKLEIKRTVAAPETTVTQSPSSLSASVGDRVTITCITSTDIDVDMNWYQQKPGKPPKLLISQGNTLRPGVPSRFSSSGSGTDFTFTISSLQPEDFATYYCLQSDNLPLTFGQGTKLEIKRTVAAPSVFIFPPSDEQLKSGTASVVCLLNNFYPREAKVQWKVDNALQSGNSQESVTEQDSKDSTYSLSSTLTLSKADYEKHKVYACEVTHQGLSSPVTKSFNRGEC

N-Terminal VD IL-1β Neutralization Assay EC50 (Recombinant Human IL-1β [1]): 0.0126 nM | C-terminal VD IL-17 Neutralization Assay EC50 (Recombinant Human IL-17 [2]): 0.359 nM
B2: DVD1629 (bispecific antibody, human IgG1, kappa)
heavy: not shown
light: DIQMTQSPSSLSASVGDRVTITCRASGNIHNYLTWYQQTPGKAPKLLIYNAKTLADGVPSRFSGSGSGTDYTFTISSLQPEDIATYYCQHFWSIPYTFGQGTKLQITRTVAAPEIVLTQSPDFQSVTPKEKVTITCRASQDIGSELHWYQQKPDQPPKLLIKYASHSTSGVPSRFSGSGSGTDFTLTINGLEAEDAGTYYCHQTDSLPYTFGPGTKVDIKRTVAAPSVFIFPPSDEQLKSGTASVVCLLNNFYPREAKVQWKVDNALQSGNSQESVTEQDSKDSTYSLSSTLTLSKADYEKHKVYACEVTHQGLSSPVTKSFNRGEC

C-Terminal VD IL-1β Neutralization Assay EC50 (Recombinant Human IL-1β [1]): 9.38 nM | N-terminal VD IL-17 Neutralization Assay EC50 (Recombinant Human IL-17 [2]): 0.0041 nM
B3: DVD1630 (bispecific antibody, human IgG1, kappa)
heavy: not shown
light: EIVLTQSPDFQSVTPKEKVTITCRASQDIGSELHWYQQKPDQPPKLLIKYASHSTSGVPSRFSGSGSGTDFTLTINGLEAEDAGTYYCHQTDSLPYTFGPGTKVDIKRTVAAPDIQMTQSPSSLSASVGDRVTITCRASGNIHNYLTWYQQTPGKAPKLLIYNAKTLADGVPSRFSGSGSGTDYTFTISSLQPEDIATYYCQHFWSIPYTFGQGTKLQITRTVAAPSVFIFPPSDEQLKSGTASVVCLLNNFYPREAKVQWKVDNALQSGNSQESVTEQDSKDSTYSLSSTLTLSKADYEKHKVYACEVTHQGLSSPVTKSFNRGEC

N-Terminal VD IL-1β Neutralization Assay EC50 (Recombinant Human IL-1β [1]): 0.00417 nM | C-terminal VD IL-17 Neutralization Assay EC50 (Recombinant Human IL-17 [2]): 0.46 nM
B4: DVD1631 (bispecific antibody, human IgG1, kappa)
heavy: not shown
light: DIQMTQSPSSLSASVGDRVTITCRASGNIHNYLTWYQQTPGKAPKLLIYNAKTLADGVPSRFSGSGSGTDYTFTISSLQPEDIATYYCQHFWSIPYTFGQGTKLQITRTVAAPEIVLTQSPDFQSVTPKEKVTITCRASQDIGSELHWYQQKPDQPPKLLIKYASHSTSGVPSRFSGSGSGTDFTLTINGLEAEDAGTYYCHQTDSLPYTFGPGTKVDIKRTVAAPSVFIFPPSDEQLKSGTASVVCLLNNFYPREAKVQWKVDNALQSGNSQESVTEQDSKDSTYSLSSTLTLSKADYEKHKVYACEVTHQGLSSPVTKSFNRGEC

C-Terminal VD IL-1β Neutralization Assay EC50 (Recombinant Human IL-1β [1]): 0.438 nM | N-terminal VD IL-17 Neutralization Assay EC50 (Recombinant Human IL-17 [2]): 0.0065 nM
B5: DVD1632 (bispecific antibody, human IgG1, kappa)
heavy: not shown
light: EIVLTQSPDFQSVTPKEKVTITCRASQDIGSELHWYQQKPDQPPKLLIKYASHSTSGVPSRFSGSGSGTDFTLTINGLEAEDAGTYYCHQTDSLPYTFGPGTKVDIKRTVAAPDIQMTQSPSSLSASVGDRVTITCRASGNIHNYLTWYQQTPGKAPKLLIYNAKTLADGVPSRFSGSGSGTDYTFTISSLQPEDIATYYCQHFWSIPYTFGQGTKLQITRTVAAPSVFIFPPSDEQLKSGTASVVCLLNNFYPREAKVQWKVDNALQSGNSQESVTEQDSKDSTYSLSSTLTLSKADYEKHKVYACEVTHQGLSSPVTKSFNRGEC

C-Terminal VD IL-1β Neutralization Assay EC50 (Recombinant Human IL-1β [1]): 1.08 nM | N-terminal VD IL-17 Neutralization Assay EC50 (Recombinant Human IL-17 [2]): 0.0122 nM
B6: DVD1644 (bispecific antibody, human IgG1, kappa)
heavy: not shown
light: EIVLTQSPDFQSVTPKEKVTITCRASQNIGSELHWYQQKPDQSPKLLIKYASHSISGVPSRFSGSGSGTDFTLTINGLEAEDAATYYCHQSDTLPHTFGQGTKVDIKRTVAAPDTQVTQSPSSLSASVGDRVTITCITSTDIDVDMNWYQQKPGKPPKLLISQGNTLRPGVPSRFSSSGSGTDFTFTISSLQPEDFATYYCLQSDNLPLTFGQGTKLEIKRTVAAPSVFIFPPSDEQLKSGTASVVCLLNNFYPREAKVQWKVDNALQSGNSQESVTEQDSKDSTYSLSSTLTLSKADYEKHKVYACEVTHQGLSSPVTKSFNRGEC
